Drawing on publication PMC2841617, “A Combination of Independent Transcriptional Regulators Shapes Bacterial Virulence Gene Expression during Infection”, this text covers Kd (nM (unit implied)) and Kd for eight molecules.

Data set [1] deals with CcpA (Streptococcus pyogenes (group A Streptococcus; strain of the clone not stated here)). Description: fluorescence polarization. As to conditions: CovR FP: 1 nM fluorescein DNA, 20 mM Tris pH 7.5, 50 mM NaCl, 2 mM DTT, 10 ug/mL poly(dI:dC), 25 C, CcpA FP as in ref 30 (buffer not given), with or without …. For orientation: Polarisation of emitted light reports the rotation of a fluorescent probe.

Data set [2] deals with CcpA;HPr-Ser46-P (Streptococcus pyogenes (group A Streptococcus; strain of the clone not stated here);Streptococcus pyogenes (group A Streptococcus)). Description: fluorescence polarization. The conditions noted are these: CovR FP: 1 nM fluorescein DNA, 20 mM Tris pH 7.5, 50 mM NaCl, 2 mM DTT, 10 ug/mL poly(dI:dC), 25 C, CcpA FP as in ref 30 (buffer not given), with or without ….

For data set [3], the target named is CovR (unphosphorylated) (Streptococcus pyogenes MGAS5005 (serotype M1)) (UniProt O87527). Description: fluorescence polarization. The conditions noted are these: CovR FP: 1 nM fluorescein DNA, 20 mM Tris pH 7.5, 50 mM NaCl, 2 mM DTT, 10 ug/mL poly(dI:dC), 25 C; CcpA FP as in ref 30 (buffer not given), with or without ….
Data set [4] addresses CovR-P (phosphorylated) (Streptococcus pyogenes MGAS5005 (serotype M1)) (UniProt O87527). The data set is described as follows: fluorescence polarization. The conditions noted are these: CovR FP: 1 nM fluorescein DNA, 20 mM Tris pH 7.5, 50 mM NaCl, 2 mM DTT, 10 ug/mL poly(dI:dC), 25 C; CcpA FP as in ref 30 (buffer not given), with or without ….
For the next data set, the target named is CovR (unphosphorylated) (Streptococcus pyogenes MGAS5005 …, UniProt O87527 1-228). Description: fluorescence polarization; unphosphorylated; CovR FP: 1 nM fluorescein DNA, 20 mM Tris pH 7.5, 50 mM NaCl, 2 mM DTT, 10 ug/mL poly(dI:dC), 25 C; CcpA FP as in ref 30 (buffer not given), with or without 10. As to conditions: protein: recombinant, chain copies: 2, label: fluorescein.

For the molecule amyA cre, the Kd (nM (unit implied)) is 160 in data set [1] (no HPr-Ser46-P) and 32 in data set [2] (10 uM HPr-Ser46-P).

For the molecule arcA cre, the results for the Kd in data set [1] (no HPr-Ser46-P) and in data set [2] (10 uM HPr-Ser46-P) were 219 nM and 18 nM, respectively.

With hasA promoter probe, the Kd came out at 2200 nM in data set [3] and 640 nM in data set [4].

For nga/slo cre, the Kd in data set [1] stood at 674 nM; in data set [2], 42 nM.

As for speB cre, the Kd amounted to 100 nM in data set [1] and 5 nM in data set [2].

Regarding spyCEP cre, the Kd is 257 nM in data set [1] and 33 nM in data set [2].

On to CAACCAAACTCTCATTAGAAACCCCCCTTTCTAATGAGAGTTTGGTTG (structured_DNA) [amyA promoter probe], for which the Kd with CovR (unphosphorylated) (hairpin (21 bp stem, C6 loop)) was 245 nM.

With ACAAAAACCAATTAGAAAGACCCCCTCTTTCTAATTGGTTTTTGT (structured_DNA) [arcA promoter probe], in the data set with CovR (unphosphorylated) (hairpin (20 bp stem, C5 loop)), the Kd worked out at 637 nM.

As usually defined, the Kd is a measure of binding affinity in units of concentration.
